According to paper PMC6032869 (Allergy, 2018):

Legend:
[1] = target: T1, Mal d 1, Bet v 1-related allergen from apple (Malus domestica, UniProt Q9SYW3); assay: ELISA; inhibition ELISA: plate-bound allergen (1 ug/mL) pre-incubated with 20 ug/mL H3-1 or control ScFv, then sera of birch pollen-allergic patients diluted 1:5; bound IgE detected; % reduction against control ScFv; conditions: both partners purified
T1 construct: Mal d 1, apple allergen, Swissprot Q9SYW3; source: recombinant; materials described in Data S1

[2] = target: T2, Cor a 1, Bet v 1-related allergen from hazel (Corylus avellana, UniProt Q08407); assay: as above; conditions: both partners purified
T2 construct: Cor a 1, hazel allergen, Swissprot Q08407; source: recombinant; materials described in Data S1
Target sequence in this assay (Q08407 whole entry, looked up): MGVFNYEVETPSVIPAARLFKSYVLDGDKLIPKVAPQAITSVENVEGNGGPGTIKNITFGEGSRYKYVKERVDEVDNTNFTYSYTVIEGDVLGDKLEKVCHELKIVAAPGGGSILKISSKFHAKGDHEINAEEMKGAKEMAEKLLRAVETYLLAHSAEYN

[3] = target: T3, recombinant Bet v 1, major birch pollen allergen (Betula pendula (B. verrucosa), UniProt P15494); assay: as above; conditions: both partners purified
T3 construct: Bet v 1, major birch pollen allergen, Swissprot P15494; also called rBet v 1; source: recombinant; materials described in Data S1

[4] = target: T4, Aln g 1, Bet v 1-related allergen from alder (Alnus glutinosa, UniProt P38948); assay: as above; conditions: both partners purified
T4 construct: Aln g 1, alder pollen allergen, Swissprot P38948; source: recombinant; materials described in Data S1
Target sequence in this assay (P38948 whole entry, looked up): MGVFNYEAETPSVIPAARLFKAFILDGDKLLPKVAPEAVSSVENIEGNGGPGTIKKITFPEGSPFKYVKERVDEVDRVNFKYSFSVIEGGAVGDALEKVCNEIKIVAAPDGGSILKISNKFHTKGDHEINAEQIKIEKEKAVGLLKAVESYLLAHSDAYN

[5] = target: T1, Mal d 1, Bet v 1-related allergen from …; assay: SPR; Biacore 2000, 25°C; allergens amine-coupled to CM5 chip; reference cell BSA; H3-1 in HBS-EP pH 7.4 injected in twofold increasing concentrations at 30 uL/min; 1:1 interaction model; conditions: both partners purified
[6] = target: T2, Cor a 1, Bet v 1-related allergen from …; assay: as above; conditions: both partners purified
[7] = target: T3, recombinant Bet v 1, major birch pollen …; assay: as above; conditions: both partners purified
[8] = target: T4, Aln g 1, Bet v 1-related allergen from …; assay: as above; conditions: both partners purified
[9] = target: T3, recombinant Bet v 1, major birch pollen …; assay: cell-based or functional assay
[10] = target: T1, Mal d 1, Bet v 1-related allergen from …; assay: ELISA; inhibition ELISA: plate-bound allergen (1 ug/mL) pre-incubated with 20 ug/mL H3-1 or control ScFv, then sera of birch pollen-allergic patients diluted 1:5; bound IgE detected; % reduction against control ScFv; conditions: both partners purified; remark: listed apart in the source
[11] = target: T2, Cor a 1, Bet v 1-related allergen from …; assay: as above; conditions: both partners purified; remark: listed apart in the source
Target sequence in this assay (Q08407 whole entry, looked up): as the sequence (Q08407 whole entry, looked up) above

[12] = target: T4, Aln g 1, Bet v 1-related allergen from …; assay: as above; conditions: both partners purified; remark: listed apart in the source
Target sequence in this assay (P38948 whole entry, looked up): as the sequence (P38948 whole entry, looked up) above

[13] = target: T5, bovine serum albumin (Bos taurus, UniProt P02769); assay: ELISA; allergens, fragments, peptides or BSA coated at 4 ug/mL in 1xPBS; blocked with 1xPBS/3% BSA; 1 ug/mL H3-1 added; bound ScFv traced with anti-E Tag antibody; conditions: both partners purified
T5 construct: bovine serum albumin, control protein; also called BSA

[14] = target: T6, synthetic Bet v 1-derived peptide 5 (aa 130-160) (Betula pendula, UniProt P15494); assay: as above; conditions: both partners purified
T6 construct: Bet v 1, birch, Swissprot P15494, C-terminal peptide aa 130-160; also called C-terminal peptide 5; source: synthetic peptide
T6 chain: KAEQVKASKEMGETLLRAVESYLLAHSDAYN

T1 sequence (Q9SYW3 entry or part of it): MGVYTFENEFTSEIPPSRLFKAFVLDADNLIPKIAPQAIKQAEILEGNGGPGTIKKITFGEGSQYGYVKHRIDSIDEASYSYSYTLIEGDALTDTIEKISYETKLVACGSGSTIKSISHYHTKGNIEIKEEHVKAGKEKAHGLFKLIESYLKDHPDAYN
T5 sequence (P02769 25-607): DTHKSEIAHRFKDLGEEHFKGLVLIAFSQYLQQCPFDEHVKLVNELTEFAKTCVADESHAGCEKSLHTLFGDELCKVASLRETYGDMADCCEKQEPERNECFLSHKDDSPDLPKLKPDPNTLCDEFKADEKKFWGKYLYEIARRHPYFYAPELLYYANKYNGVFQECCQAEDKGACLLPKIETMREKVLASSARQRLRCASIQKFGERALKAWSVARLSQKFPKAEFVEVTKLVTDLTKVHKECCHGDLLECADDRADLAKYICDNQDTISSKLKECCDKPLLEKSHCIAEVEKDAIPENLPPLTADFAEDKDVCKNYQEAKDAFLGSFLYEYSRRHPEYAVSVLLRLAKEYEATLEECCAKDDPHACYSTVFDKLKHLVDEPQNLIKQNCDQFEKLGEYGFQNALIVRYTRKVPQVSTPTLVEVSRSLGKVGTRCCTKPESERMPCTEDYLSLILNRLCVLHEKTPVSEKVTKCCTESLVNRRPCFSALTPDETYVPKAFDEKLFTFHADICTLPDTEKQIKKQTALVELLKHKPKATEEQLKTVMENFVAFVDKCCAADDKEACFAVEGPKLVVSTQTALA

B1: Bet v 1-specific IgG-derived ScFv H3-1 (scFv, V domains shown)
VH: QVQLVQSGAEVKKPGSSVKVSCKASGGTFSSYAISWVRQAPGQGLEWMGRIIPILGIVNYAQKFQGRVTITADKSTSTAYMELSSLRSEDTAVYYCAREPLGYCSGGSCYPLHNGMDVWGQGTTVTVSS
VL: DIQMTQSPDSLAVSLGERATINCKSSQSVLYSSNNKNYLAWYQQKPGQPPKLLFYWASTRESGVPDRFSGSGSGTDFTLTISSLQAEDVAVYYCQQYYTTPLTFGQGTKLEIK
notes: VH of H3-1 (H3-1_HV); (Gly4Ser)3 linker; V kappa of H3-1 (H3-1_KV); Cloned in phagemid pCANTAB 5E; The E tag is named for the direct ELISA (detection with anti-E Tag antibody); A form with a C-terminal His tag was also constructed; also called ScFv (clone H3-1); H3-1 ScFv; source: also tested as soluble ScFv after conversion of phage clones; not shown: E tag, C-terminal, kept
% inhibition of IgE binding, patient 1 [1]: 8.6%
% inhibition of IgE binding, patient 5 [1]: 3.6%
% inhibition of IgE binding, patient 9 [1]: 10.9%
% inhibition of IgE binding, patient 10 [1]: 10.5%
% inhibition of IgE binding, patient 11 [1]: 19.1%
% inhibition of IgE binding, patient 12 [1]: 22.4%
% inhibition of IgE binding, patient 13 [1]: 27.4%
% inhibition of IgE binding, patient 16 [1]: 2.3%
% inhibition of IgE binding, patient 17 [1]: 40.5%
% inhibition of IgE binding, patient 18 [1]: 17.1%
% inhibition of IgE binding, patient 19 [1]: 15.3%
% inhibition of IgE binding, patient 20 [1]: 16.5%
% inhibition of IgE binding, patient 21 [1]: 11.9%
% inhibition of IgE binding, patient 22 [1]: 26.3%
% inhibition of IgE binding, patient 23 [1]: 3%
% inhibition of IgE binding, patient 24 [1]: 19.3%
% inhibition of IgE binding, patient 25 [1]: 17.9%
% inhibition of IgE binding, patient 26 [1]: 19.7%
% inhibition of IgE binding, patient 27 [1]: 27.4%
% inhibition of IgE binding, patient 28 [1]: 8.2%
% inhibition of IgE binding, patient 29 [1]: 22.5%
mean % inhibition of patients' IgE binding [1]: 16.1%
% inhibition of IgE binding, patient 1 [2]: 32.7%
% inhibition of IgE binding, patient 5 [2]: 29%
% inhibition of IgE binding, patient 7 [2]: 19%
% inhibition of IgE binding, patient 9 [2]: 48.9%
% inhibition of IgE binding, patient 10 [2]: 8.6%
% inhibition of IgE binding, patient 12 [2]: 44.9%
% inhibition of IgE binding, patient 13 [2]: 35%
% inhibition of IgE binding, patient 16 [2]: 18.4%
% inhibition of IgE binding, patient 17 [2]: 43%
% inhibition of IgE binding, patient 18 [2]: 40.9%
% inhibition of IgE binding, patient 19 [2]: 33.6%
% inhibition of IgE binding, patient 20 [2]: 33.9%
% inhibition of IgE binding, patient 21 [2]: 6%
% inhibition of IgE binding, patient 22 [2]: 53.7%
% inhibition of IgE binding, patient 23 [2]: 21.1%
% inhibition of IgE binding, patient 24 [2]: 36%
% inhibition of IgE binding, patient 25 [2]: 57.6%
% inhibition of IgE binding, patient 26 [2]: 22%
% inhibition of IgE binding, patient 27 [2]: 31.2%
% inhibition of IgE binding, patient 28 [2]: 45.1%
% inhibition of IgE binding, patient 29 [2]: 39.6%
% inhibition of IgE binding, patient 30 [2]: 29.5%
mean % inhibition of patients' IgE binding [2]: 29.1%
% inhibition of IgE binding, patient 1 [3]: 60.9%
% inhibition of IgE binding, patient 5 [3]: 27.6%
% inhibition of IgE binding, patient 7 [3]: 42.2%
% inhibition of IgE binding, patient 9 [3]: 52.8%
% inhibition of IgE binding, patient 10 [3]: 41.7%
% inhibition of IgE binding, patient 11 [3]: 51.3%
% inhibition of IgE binding, patient 12 [3]: 61.4%
% inhibition of IgE binding, patient 13 [3]: 50.5%
% inhibition of IgE binding, patient 16 [3]: 49.2%
% inhibition of IgE binding, patient 17 [3]: 51%
% inhibition of IgE binding, patient 18 [3]: 57.4%
% inhibition of IgE binding, patient 19 [3]: 54.6%
% inhibition of IgE binding, patient 20 [3]: 15.8%
% inhibition of IgE binding, patient 21 [3]: 44.9%
% inhibition of IgE binding, patient 22 [3]: 62.9%
% inhibition of IgE binding, patient 23 [3]: 47.3%
% inhibition of IgE binding, patient 24 [3]: 44.3%
% inhibition of IgE binding, patient 25 [3]: 62.9%
% inhibition of IgE binding, patient 26 [3]: 50.6%
% inhibition of IgE binding, patient 27 [3]: 62.1%
% inhibition of IgE binding, patient 29 [3]: 38.8%
% inhibition of IgE binding, patient 30 [3]: 56.8%
mean % inhibition of patients' IgE binding [3]: 45%
% inhibition of IgE binding, patient 1 [4]: 8.2%
% inhibition of IgE binding, patient 7 [4]: 6.3%
% inhibition of IgE binding, patient 9 [4]: 15.3%
% inhibition of IgE binding, patient 11 [4]: 22.5%
% inhibition of IgE binding, patient 12 [4]: 14.5%
% inhibition of IgE binding, patient 13 [4]: 11.4%
% inhibition of IgE binding, patient 16 [4]: 16.3%
% inhibition of IgE binding, patient 17 [4]: 25%
% inhibition of IgE binding, patient 19 [4]: 16.5%
% inhibition of IgE binding, patient 20 [4]: 6.9%
% inhibition of IgE binding, patient 21 [4]: 13.4%
% inhibition of IgE binding, patient 22 [4]: 37.1%
% inhibition of IgE binding, patient 23 [4]: 6.2%
% inhibition of IgE binding, patient 24 [4]: 12.9%
% inhibition of IgE binding, patient 25 [4]: 17.5%
% inhibition of IgE binding, patient 26 [4]: 23.7%
% inhibition of IgE binding, patient 27 [4]: 26.1%
% inhibition of IgE binding, patient 28 [4]: 26.1%
% inhibition of IgE binding, patient 30 [4]: 10.7%
mean % inhibition of patients' IgE binding [4]: 13.2%
Kd [5]: 2.57 nM
koff [5]: 0.000145 s⁻¹
kon [5]: 56400 M⁻¹ s⁻¹
Kd [6]: 6.83 nM
koff [6]: 0.000299 s⁻¹
kon [6]: 43800 M⁻¹ s⁻¹
Kd [7]: 0.622 nM
koff [7]: 0.00022 s⁻¹
kon [7]: 353000 M⁻¹ s⁻¹
Kd [8]: 2.96 nM
koff [8]: 0.00112 s⁻¹
kon [8]: 378000 M⁻¹ s⁻¹
Bet v 1-induced basophil activation (CD203c upregulation), blood of patient #12; Bet v 1 pre-incubated with H3-1 against control ScFv [9]: ~5 fold
Bet v 1-induced basophil activation (CD203c upregulation), blood of patient #14; Bet v 1 pre-incubated with H3-1 against control ScFv; augmentation, not reduction [9]: ~5 fold
Bet v 1-induced basophil activation (CD203c upregulation), blood of patient #22; Bet v 1 pre-incubated with H3-1 against control ScFv [9]: ~25 fold
Bet v 1-induced basophil activation (CD203c upregulation), blood of patient #26; Bet v 1 pre-incubated with H3-1 against control ScFv [9]: ~5 fold
mean % inhibition of patients' IgE binding [10]: 13.5%
mean % inhibition of patients' IgE binding [11]: 24.3%
mean % inhibition of patients' IgE binding [12]: 11.9%
binding result [13]: no binding (tested: 1 μg/mL H3-1)
binding result [14]: binds
